Test results from publication PMC8010718, “Direct coupling of oligomerization and oligomerization-driven endocytosis of the dopamine transporter to its conformational mechanics and activity” (The Journal of Biological Chemistry, 2021).

Experiments:
[1] = biological target: the molecule itself; assay: SDS-resistant oligomers on SDS-PAGE and Western blot; striatal synaptosomes of HA-DAT knock-in mice with vehicle, AIM-100 or ALs (20-40 μM, 2 h, 37 °C) in KRHG or KRHG/F12 (1:1); lysates in Laemmli buffer 30 min 42 °C; DAT antibody
[2] = biological target: the molecule itself; assay: SDS-resistant oligomers on SDS-PAGE and Western blot; PAE cells stably expressing the tagged transporter, incubated with vehicle (DMSO), AIM-100 or ALs (20 μM, 2 h, 37 °C), with or without cocaine; lysis in TGH with 1% deoxycholate; Laemmli buffer 5 min 95 °C; 7.5% SDS-PAGE; GFP antibody

B1: endogenous HA-DAT of HA-DAT knock-in mice (natural protein, mouse, UniProt Q61327 1-619, looked up)
chain: MSKSKCSVGPMSSVVAPAKEPNAVGPREVELILVKEQNGVQLTNSTLINPPQTPVEVQERETWSKKIDFLLSVIGFAVDLANVWRFPYLCYKNGGGAFLVPYLLFMVIAGMPLFYMELALGQFNREGAAGVWKICPVLKGVGFTVILISFYVGFFYNVIIAWALHYFFSSFTMDLPWIHCNNTWNSPNCSDAHSSNSSDGLGLNDTFGTTPAAEYFERGVLHLHQSRGIDDLGPPRWQLTACLVLVIVLLYFSLWKGVKTSGKVVWITATMPYVVLTALLLRGVTLPGAMDGIRAYLSVDFYRLCEASVWIDAATQVCFSLGVGFGVLIAFSSYNKFTNNCYRDAIITTSINSLTSFSSGFVVFSFLGYMAQKHNVPIRDVATDGPGLIFIIYPEAIATLPLSSAWAAVFFLMLLTLGIDSAMGGMESVITGLVDEFQLLHRHRELFTLGIVLATFLLSLFCVTNGGIYVFTLLDHFAAGTSILFGVLIEAIGVAWFYGVQQFSDDIKQMTGQRPNLYWRLCWKLVSPCFLLYVVVVSIVTFRPPHYGAYIFPDWANALGWIIATSSMAMVPIYATYKFCSLPGSFREKLAYAITPEKDRQLVDRGEVRQFTLRHWLLV
notes: also called endogenous mouse HA-DAT; source: endogenous, striatal synaptosomes from HA-DAT knock-in mice, in lysate
stoichiometry N [1]: 3

B2: YFP- and HA-epitope tagged dopamine transporter (YFP-HA-DAT), wild type (natural protein, human, UniProt Q01959 1-620, looked up)
chain: MSKSKCSVGLMSSVVAPAKEPNAVGPKEVELILVKEQNGVQLTSSTLTNPRQSPVEAQDRETWGKKIDFLLSVIGFAVDLANVWRFPYLCYKNGGGAFLVPYLLFMVIAGMPLFYMELALGQFNREGAAGVWKICPILKGVGFTVILISLYVGFFYNVIIAWALHYLFSSFTTELPWIHCNNSWNSPNCSDAHPGDSSGDSSGLNDTFGTTPAAEYFERGVLHLHQSHGIDDLGPPRWQLTACLVLVIVLLYFSLWKGVKTSGKVVWITATMPYVVLTALLLRGVTLPGAIDGIRAYLSVDFYRLCEASVWIDAATQVCFSLGVGFGVLIAFSSYNKFTNNCYRDAIVTTSINSLTSFSSGFVVFSFLGYMAQKHSVPIGDVAKDGPGLIFIIYPEAIATLPLSSAWAVVFFIMLLTLGIDSAMGGMESVITGLIDEFQLLHRHRELFTLFIVLATFLLSLFCVTNGGIYVFTLLDHFAAGTSILFGVLIEAIGVAWFYGVGQFSDDIQQMTGQRPSLYWRLCWKLVSPCFLLFVVVVSIVTFRPPHYGAYIFPDWANALGWVIATSSMAMVPIYAAYKFCSLPGSFREKLAYAIAPEKDRELVDRGEVRQFTLRHWLKV
notes: dopamine transporter (DAT), human; also called WT YFP-HA-DAT; wtDAT; source: PAE cells, stably expressing, in intact cells and in lysate
stoichiometry N [2]: 3
